Blank lines part the entries; values can stand above or below the molecule they belong to.
How the values were obtained:
Type in all cases: biochemical
[1] = Substrate specificity assay of purified luciferase, ZS2/F-CTZ luminescence ratio; conditions: for ZS2 luminescence intensity to F-CTZ luminescence intensity: purified prokaryotically expressed luciferase 1 μg/ml, substrates 100 μM, microplate reader
Description: (§1) Protein concentration was accurately determined using the BCA quantification kit (Thermo Scientific™ Pierce™ BCA Protein Assay Kit), and luciferase was diluted to 1 μg/ml with diluent (50 mM Tris-HCl pH 8.0, 100 mM NaCl, 0.1% (v/v) Tween-20) and 10 μL was added to black 96-well plates, which was then added with 90 μL of the respective substrates, coelenterazine (purchased from Baiaolaibo), fluorinated coelenterazine, and coelenterazine derivatives ZS2 and ZS26 that were diluted to 100 μM with the same solution, and the luminescence intensity was read from the luminescence module with a microplate reader. The substrate specificity of the mutants was compared with the activity ratio of ZS2/F-CTZ and ZS26/F-CTZ. Table 10 below lists results of the mutation sites and substrate specificity of ZS26/F-CTZ and ZS2/F-CTZ of the dominant mutant of Pleuromamma xiphia luciferase.
(§2) pEE12.4 Pxluc WT and mutant pEE12.4 Pxluc P26-95, as well as the coupled products SA-Pxluc WT and SA-Pxluc P26-95 were subjected to the activity assay according to the method described in Example 5.

[2] = Substrate specificity assay of purified luciferase, ZS26/F-CTZ luminescence ratio; conditions: for ZS26 luminescence intensity to F-CTZ luminescence intensity: purified prokaryotically expressed luciferase 1 μg/ml, substrates 100 μM, microplate reader
Description: as §1, §2

[3] = Protein activity assay for Pleuromamma xiphia luciferase expressed in prokaryotic cells; conditions: protein expressed in OrigamiB (DE3) or BL21 (DE3), Gluc as control, FIG. 6
Description: The concentration of protein was accurately determined using a BCA quantification kit (Thermo Scientific™ Pierce™ BCA Protein Assay Kit), and the above purified luciferase was diluted with diluent (50 mM Tris-HCl pH 8.0, 100 mM NaCl, 0.1% (v/v) Tween-20). The protein expressed by the pET28a-Pxluc WT plasmid was diluted to 12 μg/ml, and the proteins expressed by the pCold WT Pxluc plasmid and pCold WT-NS Pxluc plasmid were diluted to […]. 10 μL of each protein was added to a black 96-well plate, which was then added with 90 µL of the respective substrates, coelenterazine (purchased from Baiaolaibo), fluorinated coelenterazine, and coelenterazine derivatives ZS2, ZS26 (the structural formula of each compound is shown in FIG. 5) that were diluted to 100 µM with the same solution, and the luminescence intensity was read from the luminescence module with a microplate reader. Gluc expressed in OrigamiB (DE3) competent cells was known to have good luminescence activity, and thus it was used as a control group. […] Therefore, the luminescence activity of Pleuromamma xiphia luciferase without a signal peptide to coelenterazine is similar to that of Gluc to coelenterazine. […] Subsequent experiments were performed with Pleuromamma xiphia luciferase without a signal peptide.

[4] = Activity assay of Pxluc expressed in eukaryotic cells; conditions: expressed in eukaryotic cells (Expi-CHO); FIG. 12
Description: as §1, §2

ZS2 luminescence intensity to F-CTZ luminescence intensity [1]: 3.56
substrate specificity for ZS2/F-CTZ ([1]; text summary of Table 10, FIG. 8): about 3.56 fold
ZS26 luminescence intensity to F-CTZ luminescence intensity [2]: 1.77
substrate specificity for ZS26/F-CTZ ([2]; text summary of Table 10, FIG. 7): about 1.77 fold
B1: pCold WT-NS Pxluc: wild type Pleuromamma xiphia luciferase without a signal peptide, SEQ ID NO: 4, prokaryotic expression (protein)
chain: QPTENKQESHIVDSDLDGDRGRKLPGKKLPIEVLKIMEANARRAGCTRGCLICLSKIKCTAKMKRYIPGRCHTYEGDKSIGQGGIGGPIVDIPEIIGFKNMEPMDQFIAQVDLCADCTTGCLKGLANVRCNDLLKKWLPDRCAGFADKIQNEVDSIKGMAGDR
modifications: WT-NS Pxluc
luminescence value / luminescence activity to coelenterazine ([3]; listed as Pleuromamma xiphia luciferase without a signal peptide): higher activity
luminescence value / luminescence activity to coelenterazine ([3]; listed as pCold WT NS Pxluc): highest luminescence value

ZS2 luminescence intensity to F-CTZ luminescence intensity [1]: 21.808
ZS26 luminescence intensity to F-CTZ luminescence intensity [2]: 23.647
B2: P25-1: Pxluc mutant without signal peptide, G98L, Q99R (SEQ ID NO: 2 numbering) (protein)
chain: MYIKVWFGLACLSLVLAQPTENKQESHIVDSDLDGDRGRKLPGKKLPIEVLKIMEANARRAGCTRGCLICLSKIKCTAKMKRYIPGRCHTYEGDKSILRGGIGGPIVDIPEIIGFKNMEPMDQFIAQVDLCADCTTGCLKGLANVRCNDLLKKWLPDRCAGFADKIQNEVDSIKGMAGDR
modifications: signal peptide removed; (WT Pxluc)

B3: Pxluc WT: wild-type luciferase for eukaryotic expression, with signal peptide, 6×His tag and Avitag (SEQ ID NO: 28) (protein)
chain: MYIKVWFGLACLSLVLAHHHHHHGSQPTENKQESHIVDSDLDGDRGRKLPGKKLPIEVLKIMEANARRAGCTRGCLICLSKIKCTAKMKRYIPGRCHTYEGDKSIGQGGIGGPIVDIPEIIGFKNMEPMDQFIAQVDLCADCTTGCLKGLANVRCNDLLKKWLPDRCAGFADKIQNEVDSIKGMAGDRGSGLNDI
modifications: misc_feature 1..585 pEE12.4
activity of catalyzing the substrates ZS2, ZS26 [4]: had the activity of catalyzing the substrates
